Results on one substance are retold here after PMC7822889.

The test concerns the target SpyCatcher003-mi3 VLP.

Several values for one entry are separate records, joined by “and”; a condition that tells them apart may be missing. Equal entries are not always repeated.

One may read the stoichiometry N as a count of units in the complex or per binding partner. “SpyTag-RBD (from UniProt P0DTC2 331-529) (domain or fragment)”: the display efficiency is 93%; the display efficiency (1:1 molar ratio) was 64%; the stoichiometry N was 56 RBDs per VLP and 38 RBD per VLP.
